Results as given in the supplement of paper PMC12042874.
± gives the uncertainty stated by the source.

Assay: amyloid nucleation score (Sup35N fusion, yeast selection) (log enrichment); library NNK3; higher = more nucleation; inactive = no reads after selection
Summary of the method: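 Peptides of 20 random codons fused to Sup35N were expressed in psi-negative yeast, induced 24 hours with 100 μM copper sulfate, then grown 7 days at 30°C on medium lacking adenine and uracil. Input and output plasmid inserts were Illumina-sequenced. Nucleation score is the DiMSum log enrichment of output over input reads, centred on the mode score of non-aggregating sequences, excluding sequences with under 100 input reads. Random libraries had three technical output replicates.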

Substance	amyloid nucleation score
RLSMNLNTVHVKHKECVPYR	inactive
RKPHMTL	inactive
HNASKRMDICKASSVYKWRI	inactive
KYNANYQSSYNIVRLYRVFW	inactive
TYEST	inactive
AVWYRNI	2.06 ± 0.057
LWRGLVIWLMLSGLKCGLHL	inactive
TSCQLWETIIKMLDHARTGA	inactive
NVYVSSRVYISK	2.88 ± 0.06
VRDQLRVTLVRSENGIHAHY	inactive
CRQVRFALLNFLAAG	inactive
NRFINASNS	inactive
HVVVKK	inactive
HFFLLMLSYSYYDCVFRYKC	inactive
DCGSSCKSYPGKVVDNEMDE	inactive
TVPIMNVPD	-0.428 ± 0.8
FFVVC	inactive
CFYIKKSKVGLGHWINHV	inactive
AFNVIRYVVWFSMVRASNAS	inactive
LSVVTSTHEDASSLNTTRWM	inactive
MHTFSDQSISVEQRTCLQVR	inactive
LWKMILGTFMTQMCL	inactive

Substance	amyloid nucleation score
HIVSRP	inactive
DVTRTCRYGEVYDWTIKIRP	inactive
ALSVSSLALANDDVTG	inactive
AGDGHLSLS	inactive
EHRLVDCDVWVR	2.82 ± 0.077
CSEGLYGVSTVICCIISSVN	2.2 ± 0.077
MVWWNPNSWNVMLSLIWCLV	0.752 ± 0.14
HGKKRNGRSPYINGFYLCYW	inactive
IGKSRFKCMSVVRSRFT	inactive
ERVRRTV	inactive
AGPVMRRLFVNGWFVVFGRM	inactive
MVCIDPFNENLVRVRMTVIG	inactive
CVWTSVLDVRYLYWCNVDVR	inactive
RNHGGNDSDILRRSESMSDR	inactive
RTSLGSCKYHLVFFYRVLVW	inactive
IRNFSLKPISSNLNSL	inactive
SYLESISHPALESARVYVST	inactive
LDRKFGLRYNGTSYTCDSMV	inactive
KYWSLGNGCTTKRWSGGFVS	inactive
SGASYVQS	inactive
NTHMRAIMNPLDVSVPRPHK	inactive
MHPKSNGTFMFKMAN	inactive

Substance	amyloid nucleation score
AMNNLLFTLYVF	inactive
AYWESNSIPR	inactive
NGWLLTRLSMHLTFGIYMLV	inactive
FSWFHRRSYSVVTSLCLMGR	inactive
MHSISV	inactive
FQNHVSASKVVWHRFNRRKD	inactive
FSMVCSFKWL	inactive
QRLCCPRNL	inactive
LYNRQVGKDANSFLYNRASQ	inactive
RVLYGTICIFVGYFLVMSCV	-0.21 ± 0.57
CNYWCDVGLYGSKAFERSAT	inactive
KLCDCVMLLFTLDTRIGNVL	0.053 ± 0.7
CTLGHCMKLSMSSFPAVGKV	inactive
CLACFI	inactive
FEVIFYSGYAYLACPRRQCH	inactive
RVMRSDDVWMCSSLHDFCAV	inactive
GYLRNMVWRMSQYIREVCPR	inactive
LCSLCNSLAQWRYNSEWLYT	inactive
YNNVCSEAEWS	inactive
RHSLMRDYYNFLMLDCTE	inactive
WAKNHPDLIMLIFADTISYN	2.31 ± 0.058
